Experiments:
human CD20 = molecular target: T1, human CD20 (human, UniProt P11836 1-297); test: flow cytometry, HEK293T membrane protein array
T1 construct: whole, on cells; also called B1; MS4A
T1 sequence (looked up): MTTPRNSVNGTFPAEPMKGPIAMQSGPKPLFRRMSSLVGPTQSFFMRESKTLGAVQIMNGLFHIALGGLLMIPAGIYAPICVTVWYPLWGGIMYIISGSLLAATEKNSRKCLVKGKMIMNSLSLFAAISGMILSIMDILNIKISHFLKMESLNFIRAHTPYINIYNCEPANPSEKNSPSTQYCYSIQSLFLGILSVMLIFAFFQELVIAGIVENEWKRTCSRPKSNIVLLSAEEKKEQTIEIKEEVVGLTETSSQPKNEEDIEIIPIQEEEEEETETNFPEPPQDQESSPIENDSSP
Source text: (§1) In the membrane protein array, genetic engineering methods are used to construct the full-length cDNA sequences of human membrane proteins into expression vectors, which are then transiently transfected into HEK293T cells and arranged into an array by using microfluidic technology or chip printing technology. It is a high-throughput screening technology for studying the interaction between test substances and membrane proteins.
(§2) A chimeric rabbit monoclonal antibody, C-CAR168 scFv-RabFc, was generated by linking the anti-CD20 scFv (e.g., derived from the Ofatumumab mAb) and the anti-BCMA scFv (e.g., derived from the BCMA-20 mAb) in frame with a rabbit IgG Fc region. The chimeric antibody was added at a concentration of 20 μg/mL to the HEK293T cell array transiently transfected with 5220 membrane proteins. […] The average fluorescence intensity of its binding to CD20 and BCMA in flow cytometry was about 60-fold and 110-fold of that of the negative control group, respectively (FIG. 8B). […] This is mainly due to the binding between FCGR1A and the rabbit-derived Fc of the recombinant protein; so there is no relevant risk in clinical applications.

human BCMA = molecular target: T2, human BCMA (human, UniProt Q02223 1-184); test: flow cytometry, HEK293T membrane protein array
T2 construct: whole, on cells; also called B-cell maturation antigen; TNFRSF17
T2 sequence (looked up): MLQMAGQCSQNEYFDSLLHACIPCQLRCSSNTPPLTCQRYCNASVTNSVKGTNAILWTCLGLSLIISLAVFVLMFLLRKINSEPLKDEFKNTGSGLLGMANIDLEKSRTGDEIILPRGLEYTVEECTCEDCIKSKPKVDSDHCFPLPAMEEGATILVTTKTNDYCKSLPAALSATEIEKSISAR
Source text: as §1, §2

MC2R = molecular target: T3, MC2R (human, UniProt Q01718 1-297); test: flow cytometry, HEK293T membrane protein array, 20 µg/mL and 5 µg/mL
T3 construct: whole, on cells
T3 sequence (Q01718 whole entry): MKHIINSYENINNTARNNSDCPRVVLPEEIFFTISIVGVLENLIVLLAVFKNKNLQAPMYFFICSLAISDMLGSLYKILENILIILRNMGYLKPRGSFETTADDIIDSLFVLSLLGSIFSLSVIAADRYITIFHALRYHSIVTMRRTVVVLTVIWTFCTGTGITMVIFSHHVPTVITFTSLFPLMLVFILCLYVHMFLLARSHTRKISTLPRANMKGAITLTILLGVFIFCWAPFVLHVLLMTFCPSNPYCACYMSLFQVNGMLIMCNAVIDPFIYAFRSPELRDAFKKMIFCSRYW
Source text: as §1, §2

CLEC2B = molecular target: T4, CLEC2B (human, UniProt Q92478 1-149); test: as above
T4 construct: whole, on cells
T4 sequence (looked up): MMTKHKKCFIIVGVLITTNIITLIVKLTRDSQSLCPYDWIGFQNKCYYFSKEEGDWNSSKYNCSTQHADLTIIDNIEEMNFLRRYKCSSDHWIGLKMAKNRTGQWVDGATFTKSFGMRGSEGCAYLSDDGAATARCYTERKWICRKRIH
Source text: as §1, §2

MPZ = molecular target: T5, MPZ (human, UniProt P25189 30-248); test: as above
T5 construct: whole, on cells
T5 sequence (looked up): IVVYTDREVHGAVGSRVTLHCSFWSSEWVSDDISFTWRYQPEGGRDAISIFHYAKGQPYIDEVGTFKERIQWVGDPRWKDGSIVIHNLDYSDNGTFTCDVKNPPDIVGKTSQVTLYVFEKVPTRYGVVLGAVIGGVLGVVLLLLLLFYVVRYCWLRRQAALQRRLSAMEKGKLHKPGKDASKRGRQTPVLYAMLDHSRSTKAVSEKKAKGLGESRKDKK
Source text: as §1, §2

F11R (human) = F11R (human) (UniProt Q9Y624); test: as above
Sequence of F11R (human) (Q9Y624 28-299, stated change not applied): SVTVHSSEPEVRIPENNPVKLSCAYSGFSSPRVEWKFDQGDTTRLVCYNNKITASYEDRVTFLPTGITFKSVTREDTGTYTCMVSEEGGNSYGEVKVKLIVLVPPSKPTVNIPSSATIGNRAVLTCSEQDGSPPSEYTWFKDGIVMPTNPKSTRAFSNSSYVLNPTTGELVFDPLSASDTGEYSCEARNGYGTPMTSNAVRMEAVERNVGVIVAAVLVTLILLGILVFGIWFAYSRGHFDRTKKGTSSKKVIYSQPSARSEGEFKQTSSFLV

FCGR1A (human) = FCGR1A (human) (UniProt P12314); test: flow cytometry, HEK293T membrane protein array
Sequence of FCGR1A (human) (P12314 16-374): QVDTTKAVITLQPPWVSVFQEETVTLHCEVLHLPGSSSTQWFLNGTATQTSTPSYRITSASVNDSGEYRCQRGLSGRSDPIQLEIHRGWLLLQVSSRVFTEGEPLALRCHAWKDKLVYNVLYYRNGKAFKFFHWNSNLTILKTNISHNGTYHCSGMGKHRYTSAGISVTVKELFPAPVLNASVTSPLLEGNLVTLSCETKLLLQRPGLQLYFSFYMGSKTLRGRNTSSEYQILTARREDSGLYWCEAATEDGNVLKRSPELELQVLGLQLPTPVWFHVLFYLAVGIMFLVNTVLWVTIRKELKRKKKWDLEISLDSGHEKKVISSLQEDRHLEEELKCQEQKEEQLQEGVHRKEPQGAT

average fluorescence intensity, fold of the negative control group (human CD20): ~60 fold
average fluorescence intensity, fold of the negative control group (human BCMA): ~110 fold
average fluorescence intensity, fold of the negative control group (MC2R): ≤ 2 fold
average fluorescence intensity, fold of the negative control group (CLEC2B): ≤ 2 fold
average fluorescence intensity, fold of the negative control group (MPZ): ≤ 2 fold
average fluorescence intensity, fold of the negative control group (F11R (human)): < 2 fold
average fluorescence intensity, fold of the negative control group (FCGR1A (human)): 2.5 fold
B1: C-CAR168 scFv-RabFc (Fc fusion)
chain: EIVLTQSPATLSLSPGERATLSCRASQSVSSYLAWYQQKPGQAPRLLIYDASNRATGIPARFSGSGSGTDFTLTISSLEPEDFAVYYCQQRSNWPITFGQGTRLEIKGSTSGGGSGGGSGGGGSSEVQLVESGGGLVQPGRSLRLSCAASGFTFNDYAMHWVRQAPGKGLEWVSTISWNSGSIGYADSVKGRFTISRDNAKKSLYLQMNSLRAEDTALYYCAKDIQYGNYYYGMDVWGQGTTVTVSSGGGGSDIQMTQSPSSLSASVGDRVTITCRASQGISNYLNWYQQKPGKAPKPLIYYTSNLQSGVPSRFSGSGSGTDYTLTISSLQPEDFATYYCMGQTISSYTFGQGTKLEIKGGGGSGGGGSGGGGSEVQLVESGGGLVQPGGSLRLSCAASGFTFSNFDMAWVRQAPGKGLVWVSSITTGADHAIYADSVKGRFTISRDNAKNTLYLQMNSLRAEDTAVYYCVRHGYYDGYHLFDYWGQGTLVTVSS
notes: also called chimeric rabbit monoclonal antibody; not shown: rabbit IgG Fc region

Source: US20260108556A1 (ABELZETA, published 2026)
